Test results published in article PMC3744803, “A continuous fluorescence assay for the characterization of Nudix hydrolases” (Analytical Biochemistry, 2013).

Assays:
[1] = substrate: Nc1nc2c(ncn2[C@@H]2O[C@H](COP(=O)(O)OP(=O)(O)O[C@H]3O[C@H](CO)[C@@H](O)[C@H](O)[C@@H]3O)[C@@H](O)[C@H]2O)c(=O)[nH]1; assay: discontinuous Fiske-SubbaRow (malachite green phosphate) assay; format: biochemical, Escherichia coli; conditions: pH 8.5, 37 °C, 1 mM MgCl2, APase coupling
Source text: discontinuous Fiske-SubbaRow (malachite green phosphate) assay on NudD

[2] = substrate: Nc1nc2c([nH]c(=O)n2[C@@H]2O[C@H](CO[P@@](=O)(O)O[P@@](=O)(O)OP(=O)(O)O)[C@@H](O)[C@H]2O)c(=O)[nH]1; assay: continuous fluorescence Pi-sensor (PBP-MDCC) assay; format: biochemical, Escherichia coli; conditions: pH 7.6, 37 °C, 10 mM Tris-HCl, 1 mM MgCl2, PPase coupling
Source text: (§1) continuous fluorescence Pi-sensor (PBP-MDCC) assay on MutT

[3] = substrate: Nc1nc2c([nH]c(=O)n2[C@H]2C[C@H](O)[C@@H](COP(=O)(O)OP(=O)(O)OP(=O)(O)O)O2)c(=O)[nH]1; assay: continuous fluorescence Pi-sensor (PBP-MDCC) assay; format: biochemical, Escherichia coli; conditions: pH 7.6, 37 °C, 10 mM Tris-HCl, 1 mM MgCl2, PPase coupling, alpha-beta cleavage
Source text: as §1

[4] = substrate: Nc1nc2c([nH]c(=O)n2[C@H]2C[C@H](O)[C@@H](COP(=O)(O)OP(=O)(O)OP(=O)(O)O)O2)c(=O)[nH]1; assay: continuous fluorescence Pi-sensor (PBP-MDCC) assay; format: biochemical, Methanosarcina mazei; conditions: pH 7.6, 37 °C, 10 mM Tris-HCl, 1 mM MgCl2, PPase coupling
Source text: (§2) continuous fluorescence Pi-sensor (PBP-MDCC) assay on MM_0920

[5] = substrate: Nc1ncnc2c1[nH]c(=O)n2[C@H]1C[C@H](O)[C@@H](COP(=O)(O)OP(=O)(O)OP(=O)(O)O)O1; assay: continuous fluorescence Pi-sensor (PBP-MDCC) assay; format: biochemical, Methanosarcina mazei; conditions: pH 7.6, 37 °C, 10 mM Tris-HCl, 1 mM MgCl2, PPase coupling
Source text: as §2

[6] = substrate: Nc1nc2c([nH]c(=O)n2[C@@H]2O[C@H](CO[P@@](=O)(O)O[P@@](=O)(O)OP(=O)(O)O)[C@@H](O)[C@H]2O)c(=O)[nH]1; assay: continuous fluorescence Pi-sensor (PBP-MDCC) assay; format: biochemical, Deinococcus radiodurans; conditions: pH 7.6, 37 °C, 10 mM Tris-HCl, 1 mM MgCl2, no coupling phosphatase
Source text: (§3) continuous fluorescence Pi-sensor (PBP-MDCC) assay on DR_1025

[7] = substrate: Nc1nc2c([nH]c(=O)n2[C@H]2C[C@H](O)[C@@H](COP(=O)(O)OP(=O)(O)OP(=O)(O)O)O2)c(=O)[nH]1; assay: continuous fluorescence Pi-sensor (PBP-MDCC) assay; format: biochemical, Deinococcus radiodurans; conditions: pH 7.6, 37 °C, 10 mM Tris-HCl, 1 mM MgCl2, no coupling phosphatase
Source text: as §3

B1: NudD (Escherichia coli K-12) (protein)
chain: MFLRQEDFATVVRSTPLVSLDFIVENSRGEFLLGKRTNRPAQGYWFVPGGRVQKDETLEAAFERLTMAELGLRLPITAGQFYGVWQHFYDDNFSGTDFTTHYVVLGFRFRVSEEELLLPDEQHDDYRWLTSDALLASDNVHANSRAYFLAEKRTGVPGL
B1 showed a Km [1] of 220 ± 60 µM.

B2: MutT (Escherichia coli K-12) (protein)
chain: MKKLQIAVGIIRNENNEIFITRRAADAHMANKLEFPGGKIEMGETPEQAVVRELQEEVGITPQHFSLFEKLEYEFPDRHITLWFWLVERWEGEPWGKEGQPGEWMSLVGLNADDFPPANEPVIAKLKRL
Work on B2 yielded a Km [2] of 0.9 ± 0.2 µM, a kcat [2] of 11.2 ± 0.9 s⁻¹ and a Km [3] of 0.28 ± 0.03 µM.

B3: MM_0920 (Methanosarcina mazei Go1) (protein)
chain: MNLEKPYIISVYALIRNEKGEFLLLRRSENSRTNAGKWDLPGGKVNPDESLKEGVAREVWEETGITMVPGDIAGQVNFELTEKKVIAIVFDGGYVVADVKLSYEHIEYSWVSLEKILGMETLPAYFRDFFERFDRENKKPSKLFI
With B3 the Km [4] was 13 ± 3 µM, the kcat [4] was “(1.9 ± 0.2) × 10^−3 s^−1” and the Km [5] was 12 ± 3 µM. For the same protein, the kcat [5] was 0.00096 ± 8e-05 s⁻¹ and the kcat/Km [5] was 78 ± 12 M⁻¹ s⁻¹.

B4: DR_1025 (Deinococcus radiodurans R1 = ATCC 13939 = DSM 20539) (protein)
chain: MEHDERTHVPVELRAAGVVLLNERGDILLVQEKGIPGHPEKAGLWHIPSGAVEDGENPQDAAVREACEETGLRVRPVKFLGAYLGRFPDGVLILRHVWLAEPEPGQTLAPAFTDEIAEASFVSREDFAQLYAAGQIRMYQTKLFYADALREKGFPALPV
With B4 the Km [6] was 22 ± 5 µM, the kcat [6] was 0.13 ± 0.01 s⁻¹ and the Km [7] was 26 ± 1 µM. For the same protein, the kcat [7] was 0.18 ± 0.01 s⁻¹ and the kcat/Km [7] was 4400 ± 100 M⁻¹ s⁻¹.
